# B1: tissue-type plasminogen activator (tPA, Actilyse, Boehringer-Ingelheim) (protein)
# chain: SYQVICRDEKTQMIYQQHQSWLRPVLRSNRVEYCWCNSGRAQCHSVPVKSCSEPRCFNGGTCQQALYFSDFVCQCPEGFAGKCCEIDTRATCYEDQGISYRGTWSTAESGAECTNWNSSALAQKPYSGRRPDAIRLGLGNHNYCRNPDRDSKPWCYVFKAGKYSSEFCSTPACSEGNSDCYFGNGSAYRGTHSLTESGASCLPWNSMILIGKVYTAQNPSAQALGLGKHNYCRNPDGDAKPWCHVLKNRRLTWEYCDVPSCSTCGLRQYSQPQFRIKGGLFADIASHPWQAAIFAKHRRSPGERFLCGGILISSCWILSAAHCFQERFPPHHLTVILGRTYRVVPGEEEQKFEVEKYIVHKEFDDDTYDNDIALLQLKSDSSRCAQESSVVRTVCLPPADLQLPDWTECELSGYGKHEALSPFYSERLKEAHVRLYPSSRCTSQHLLNRTVTDNMLCAGDTRSGGPQANLHDACQGDSGGPLVCLNDGRMTLVGIISWGLGCGQKDVPGVYTKVTNYLDWIRDNMRP
# Tests used:
# [1] = molecular target: T1, recombinant human β2-glycoprotein I, P02749
# T1 chain: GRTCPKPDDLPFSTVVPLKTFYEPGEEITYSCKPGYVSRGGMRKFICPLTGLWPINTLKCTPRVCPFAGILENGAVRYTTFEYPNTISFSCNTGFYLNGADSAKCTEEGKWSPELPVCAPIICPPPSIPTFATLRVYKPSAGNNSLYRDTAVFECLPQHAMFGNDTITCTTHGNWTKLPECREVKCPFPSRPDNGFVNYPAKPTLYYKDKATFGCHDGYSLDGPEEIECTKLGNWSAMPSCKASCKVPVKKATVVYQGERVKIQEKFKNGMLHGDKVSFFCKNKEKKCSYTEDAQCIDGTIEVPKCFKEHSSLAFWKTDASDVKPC
# [2] = molecular target: T2, β2-glycoprotein I purified from fresh human plasma, P02749
# T2 chain: T1 chain
# [3] = molecular target: T3, heat-denatured misfolded chicken ovalbumin, P01012
# T3 chain: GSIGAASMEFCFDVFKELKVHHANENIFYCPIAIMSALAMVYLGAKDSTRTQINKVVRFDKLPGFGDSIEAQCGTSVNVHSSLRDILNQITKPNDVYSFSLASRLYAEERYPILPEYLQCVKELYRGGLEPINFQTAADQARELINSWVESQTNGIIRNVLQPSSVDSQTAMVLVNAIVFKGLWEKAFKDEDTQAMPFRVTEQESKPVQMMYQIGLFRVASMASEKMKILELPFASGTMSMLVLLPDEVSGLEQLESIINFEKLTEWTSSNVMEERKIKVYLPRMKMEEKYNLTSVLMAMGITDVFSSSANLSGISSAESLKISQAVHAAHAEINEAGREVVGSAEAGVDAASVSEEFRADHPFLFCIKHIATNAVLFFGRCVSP
protein,measurement,setting,value
B1,"Plg-activation assay: tPA-mediated conversion of Plg to plasmin, chromogenic substrate S-2251",[1],"Recombinant β2GPI, but not β2GPI purified from fresh plasma stimulate tPA-mediated conversion of Plg to plasmin"
same,"Plg-activation assay: tPA-mediated conversion of Plg to plasmin, chromogenic substrate S-2251",[2],"Recombinant β2GPI, but not β2GPI purified from fresh plasma stimulate tPA-mediated conversion of Plg to plasmin"
same,"tPA protease activity, chromogenic tPA substrate S-2765",[3],"At 80-fold dilution, misfolded OVA stimulated tPA protease activity when compared to PBS/DMSO buffer control"
